Reference: article PMC8433370, “Low sample volume origami-paper-based graphene-modified aptasensors for label-free electrochemical detection of cancer biomarker-EGFR”

Target: EGFR antigen (epidermal growth factor receptor) (UniProt P00533 25-645)
Assay: electrochemical aptasensor (CV/DPV); aptamer on NH2-GO/THI/AuNP paper electrode; linear range 0.05-200 ng/mL, LOD 5 pg/mL (not a Kd); Aptamer on NH2-GO/THI/AuNP electrode, mercaptoethanol block, wash in TE (10 mM Tris-HCl, 1 mM EDTA; TE stock pH 8.0); binding buffer and temperature not given in the material
Details: protein: commercial

B1: anti-EGFR aptamer (ssDNA)
DNA: TACCAGTGCGATGCTCAGTGCCGTTTCTTCTCTTTCGCTTTTTTTGCTTTTGAGCATGCTGACGCATTCGGTTGAC
modifications: 5'-thiol
binding result: binds
